Results on four molecules are retold here after paper PMC12205653 (The Journal of Biological Chemistry, 2025).

Assay [1] addresses endogenous CAPN2 (human (endogenous in MDA-MB-231)) (UniProt P17655).
For assay [2], the target named is T1, His10-LgBiT-CAPNS1 (human, UniProt P04632 60-268).
T1 construct: CAPNS1, calpain small regulatory subunit, human, penta-EF-hand domain PEF(S), residues 60-268; Cloned in pET16b; also called CAPNS1 PEF(S) biosensor component; source: E. coli BL21 RIPL; not shown: His10, N-terminal, kept; LgBiT, N-terminal, kept
T1 sequence (looked up): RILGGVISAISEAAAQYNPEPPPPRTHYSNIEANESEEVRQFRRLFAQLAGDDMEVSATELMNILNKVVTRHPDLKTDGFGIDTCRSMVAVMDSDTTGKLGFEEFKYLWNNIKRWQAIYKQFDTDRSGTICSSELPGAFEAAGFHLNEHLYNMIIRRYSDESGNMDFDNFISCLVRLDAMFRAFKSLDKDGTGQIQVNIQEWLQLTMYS
Briefly: split reporter (BiFC, NanoBiT); fixed 100 nM LgBiT-CAPNS1, increasing SmBiT component, 5 mM Ca2+; estimated KD from the inflection of the plot assuming first-order kinetics; for CAPNS1 with CAPNS1: dimer to monomers. To be noted: both partners purified.

Assay [3] has as its target T2, LgBiT-CAPNS1 (mammalian expression construct) (human, UniProt P04632 60-268).
T2 construct: CAPNS1, human, PEF(S) domain, residues 60-268, in pBiT1.1-N (TK/LgBiT); source: HEK293T, transfected, in lysate; not shown: LgBiT, N-terminal, kept
T2 sequence (looked up): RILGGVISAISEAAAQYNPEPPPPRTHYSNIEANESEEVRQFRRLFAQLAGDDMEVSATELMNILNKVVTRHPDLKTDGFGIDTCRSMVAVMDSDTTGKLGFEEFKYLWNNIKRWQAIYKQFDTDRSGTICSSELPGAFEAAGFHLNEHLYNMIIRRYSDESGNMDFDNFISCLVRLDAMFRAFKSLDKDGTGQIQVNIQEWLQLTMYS
Briefly: split reporter (BiFC, NanoBiT); LgBiT and SmBiT fusions coexpressed pairwise in transfected HEK293T cells; luciferase signal of cell lysates as fold change over a LgBiT-alone control. To be noted: partners not purified.

For assay [4], the target named is T1, His10-LgBiT-CAPNS1. Briefly: split reporter (BiFC, NanoBiT); crude bacterial lysates with approximately equimolar biosensor components; 5 mM Mg2+, no Ca2+; fold over His10-LgBiT-CAPNS1 alone. To be noted: partners not purified.
Assay [5] addresses T1, His10-LgBiT-CAPNS1. The experiment in a line: split reporter (BiFC, NanoBiT); fixed 100 nM LgBiT-CAPNS1, increasing SmBiT-CAPN1/2, 5 mM Mg2+ in place of Ca2+; estimated KD from the inflection of the plot assuming first-order kinetics. The settings on record: both partners purified.

Chain of endogenous CAPN2 (human (endogenous in MDA-MB-231)) (P17655 20-700): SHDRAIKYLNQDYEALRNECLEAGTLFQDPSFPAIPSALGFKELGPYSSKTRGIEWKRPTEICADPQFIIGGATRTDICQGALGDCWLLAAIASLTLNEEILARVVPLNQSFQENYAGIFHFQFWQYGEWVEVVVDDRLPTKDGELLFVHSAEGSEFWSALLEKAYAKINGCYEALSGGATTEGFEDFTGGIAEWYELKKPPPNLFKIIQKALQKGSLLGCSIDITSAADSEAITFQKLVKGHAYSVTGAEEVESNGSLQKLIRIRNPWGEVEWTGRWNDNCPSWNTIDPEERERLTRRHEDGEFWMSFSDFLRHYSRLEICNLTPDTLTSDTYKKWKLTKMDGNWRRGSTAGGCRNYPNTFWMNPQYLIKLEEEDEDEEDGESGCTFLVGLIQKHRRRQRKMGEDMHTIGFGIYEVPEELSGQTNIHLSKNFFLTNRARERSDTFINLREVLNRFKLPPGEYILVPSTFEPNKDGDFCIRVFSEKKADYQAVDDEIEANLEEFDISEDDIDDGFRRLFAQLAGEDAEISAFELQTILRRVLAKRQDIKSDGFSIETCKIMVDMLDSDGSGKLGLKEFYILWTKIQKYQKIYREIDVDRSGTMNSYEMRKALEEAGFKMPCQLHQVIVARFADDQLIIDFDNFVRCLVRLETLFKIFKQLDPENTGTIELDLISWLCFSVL

“recombinant CAPNS1 Q263R (pMSCV_CAPNS1) (from UniProt P04632 1-268) (natural protein)”: the calpain-2 casein proteolytic activity (zymography of cell lysates), standardized to CAPN2 expression, against WT CAPNS1 in assay [1] is 51 % of the WT.

B1: His6-MBP-SmBiT-CAPNS1 (domain or fragment, human, UniProt P04632 60-268, looked up)
chain: RILGGVISAISEAAAQYNPEPPPPRTHYSNIEANESEEVRQFRRLFAQLAGDDMEVSATELMNILNKVVTRHPDLKTDGFGIDTCRSMVAVMDSDTTGKLGFEEFKYLWNNIKRWQAIYKQFDTDRSGTICSSELPGAFEAAGFHLNEHLYNMIIRRYSDESGNMDFDNFISCLVRLDAMFRAFKSLDKDGTGQIQVNIQEWLQLTMYS
notes: CAPNS1, calpain small regulatory subunit, human, penta-EF-hand domain PEF(S), residues 60-268; Same CAPNS1 stretch as m1 with other tags; m4 with m1 measures the PEF(S):PEF(S) homodimer of CAPNS1; not shown: His6, N-terminal, kept; MBP, N-terminal, kept; SmBiT, N-terminal, kept
What is called Kd is the free concentration of one partner at which half of the binding sites on the other are occupied at equilibrium, for simple one-to-one binding. B1: in the assay with His10-LgBiT-CAPNS1 [2], the Kd was 635 nM.

B2: SmBiT-CAPN1 (mammalian expression construct) (domain or fragment, human, UniProt P07384 538-714, looked up)
chain: LSEEEIDENFKALFRQLAGEDMEISVKELRTILNRIISKHKDLRTKGFSLESCRSMVNLMDRDGNGKLGLVEFNILWNRIRNYLSIFRKFDLDKSGSMSAYEMRMAIESAGFKLNKKLYELIITRYSEPDLAVDFDNFVCCLVRLETMFRFFKTLDTDLDGVVTFDLFKWLQLTMFA
notes: CAPN1, human, PEF(L) domain, residues 538-714, in pBiT2.1-N (TK/SmBiT); source: HEK293T, transfected, in lysate; not shown: SmBiT, N-terminal, kept
As for B2, the “fold increase of bioluminescence over LgBiT-CAPNS1 alone” value in assay [3] was roughly 400 fold.

B3: His6-MBP-SmBiT-CAPN1 (domain or fragment, human, UniProt P07384 538-714, looked up)
chain: LSEEEIDENFKALFRQLAGEDMEISVKELRTILNRIISKHKDLRTKGFSLESCRSMVNLMDRDGNGKLGLVEFNILWNRIRNYLSIFRKFDLDKSGSMSAYEMRMAIESAGFKLNKKLYELIITRYSEPDLAVDFDNFVCCLVRLETMFRFFKTLDTDLDGVVTFDLFKWLQLTMFA
notes: CAPN1, calpain-1 catalytic subunit, human, penta-EF-hand domain PEF(L), residues 538-714; Cloned in pHT29 (modified pET16b); also called CAPN1 PEF(L) biosensor component; source: E. coli BL21 RIPL; not shown: His6, N-terminal, kept; MBP, N-terminal, kept; SmBiT, N-terminal, kept
Take B3: the dissociation constant Kd was 185 nM with His10-LgBiT-CAPNS1 [2] and 362 nM with His10-LgBiT-CAPNS1 [5]. Also, in the assay with His10-LgBiT-CAPNS1 [4], the “fold signal over LgBiT-CAPNS1 alone” value amounted to 47 fold.
